One may read the Kd as a measure of binding affinity in units of concentration. Usually koff stands for the rate constant with which the complex falls apart. The low end stands for a long-lived complex, the high end for a short-lived complex. One may read the kon as the rate constant with which the complex forms.

3 molecules from PMC10825016, “New insights into the structure and function of the complex between the Escherichia coli Hsp70, DnaK, and its nucleotide-exchange factor, GrpE” (The Journal of Biological Chemistry, 2023) can be followed below.

The target of test [1] is T1, Wildtype E. coli full-length DnaK (E. coli, UniProt P0A6Y8 1-638).
T1 construct: Escherichia coli Hsp70 DnaK, wildtype, full length; 2H, ILV 13C-methyl labelled and nucleotide free in the NMR experiments
The experiment in a line: NMR titration; HMQC spectra of 2H, 13C-methyl ILV labelled protein, 25 °C; nucleotide free; 40 μM NBD^1–392 T199A plus 40 μM GrpE or truncated variants, or 60 μM DnaK plus 80 μM GrpE or truncated variants. The settings on record: both partners purified.

Test [2] deals with T2, DnaK nucleotide-binding domain NBD^1–392 T199A (E. coli, UniProt P0A6Y8 1-392, T199A).
T2 construct: Nucleotide free unless specified; Used unlabelled in SPR and 2H-15N labelled or 2H, ILV 13C-methyl labelled in NMR; also called DnaK NBD; wildtype NBD
Described as above. The settings on record: both partners purified.

The target of test [3] is DnaK NBD^1–392 Δ285 to 295 (E. coli, UniProt P0A6Y8 1-392, T199A | Δ285 to 295). The experiment in a line: SPR; Biacore T-200, NTA sensor chip activated with Ni2+; N-terminal His-tagged GrpE immobilised; nucleotide-free NBD^1–392 T199A or its variants perfused at diverse concentrations; control without GrpE subtracted; equilibrium and kinetic fits. The conditions noted are these: both partners purified.

In a further test the target is DnaK NBD^1–392 Y285R (E. coli, UniProt P0A6Y8 1-392, T199A | Y285R). The test is described as above. The settings on record: both partners purified.
Test [4] addresses T2, DnaK nucleotide-binding domain …. The description is as above. The settings on record: both partners purified.
The next test concerns the target DnaK NBD^1–392 Q260R (E. coli, UniProt P0A6Y8 1-392, T199A | Q260R). The test is described as above. The settings on record: both partners purified.
Test [5] deals with T1, Wildtype E. coli full-length DnaK. In words: not stated; data not shown; nucleotide-free DnaK/GrpE.

B1: GrpE^69–197 (domain or fragment, E. coli, UniProt P09372 69-197, looked up)
chain: MENLRRRTELDIEKAHKFALEKFINELLPVIDSLDRALEVADKANPDMSAMVEGIELTLKSMLDVVRKFGVEVIAETNVPLDPNVHQAIAMVESDDVAPGNVLGIMQKGYTLNGRTIRAAMVTVAKAKA
notes: lacks the N-terminal disordered tail and a portion of the coiled-coil domain; 2H-labelled for the 1H-15N HSQC experiments; also called truncated GrpE variant; source: E. coli BL21(DE3), purified (Ni-NTA, TEV cleavage, second Ni-NTA)
Consider B1, for which the binding result in test [1] and in test [2] was “binds” in each case.

B2: N-terminal His-tagged GrpE (natural protein, E. coli, UniProt P09372 1-197, looked up)
chain: MSSKEQKTPEGQAPEEIIMDQHEEIEAVEPEASAEQVDPRDEKVANLEAQLAEAQTRERDGILRVKAEMENLRRRTELDIEKAHKFALEKFINELLPVIDSLDRALEVADKANPDMSAMVEGIELTLKSMLDVVRKFGVEVIAETNVPLDPNVHQAIAMVESDDVAPGNVLGIMQKGYTLNGRTIRAAMVTVAKAKA
notes: Held on the Ni-NTA sensor chip by its His tag in SPR; source: E. coli BL21(DE3), purified (Ni-NTA); not shown: His tag, N-terminal, kept
For B2, the Kd in test [3] is 440 ± 60 nM; with DnaK NBD^1–392 Y285R it was 120 ± 10 nM; in test [4], 3.8 ± 0.6 nM; in the test with DnaK NBD^1–392 Q260R, 4.1 ± 0.3 nM. Besides, the koff is 0.0158 s⁻¹ in test [3], 0.0178 s⁻¹ in the test with DnaK NBD^1–392 Y285R, 0.021 s⁻¹ in test [4] and 0.0231 s⁻¹ with DnaK NBD^1–392 Q260R. For the same molecule, the kon turned out to be 39000 M⁻¹ s⁻¹ in test [3], 24000 M⁻¹ s⁻¹ in the test with DnaK NBD^1–392 Y285R, 5.9e+06 M⁻¹ s⁻¹ in test [4] and 5.6e+06 M⁻¹ s⁻¹ in the test with DnaK NBD^1–392 Q260R.

B3: GrpE, full-length wildtype, His tag cleaved (natural protein, E. coli, UniProt P09372 1-197, looked up)
chain: B2 chain
notes: Escherichia coli GrpE, nucleotide-exchange factor of DnaK, wildtype, full length; also called full-length GrpE; wildtype GrpE; source: E. coli BL21(DE3), purified (Ni-NTA, TEV cleavage, second Ni-NTA); not shown: His tag, N-terminal, cleaved
As to B3, binding in test [5] was put at a Kd of 3 nM.
